In patent US10328100B2 (Amorphical Ltd., priority 2007, dated 2019):
“And” between values parts separate entries of the source, which are not always exact repeats. Identical values can stand only once. “Also recorded” adds a separate entry of the source. One block for each molecule: values may come before it.

Columns and labels:
C. quadricarinatus = conditions: cited from earlier work
GAP65 transcript = experiment: GAP65 silencing by in vivo injections of GAP65 dsRNA (RNAi) to intermolt crayfish; parameters: species or system Cherax quadricarinatus
Experimental: Relative GAP65 transcript levels in the gastrolith epithelial disc following silencing using GAP65 dsRNA were measured using realtime RT-PCR and presented in FIG. 4. GAP65 levels were evaluated in crayfish injected with ecdysone and GAP65 dsRNA, ecdysone and dsRNA carrier, ecdysone and C. quadricarinatus vitellogenin (CqVg) dsRNA, and a control injected with both carriers. CqVg an hepatopancreatic specific gene found mostly in reproductive females, served as a control for sequence specific silencing. […] In the crayfish injected with ecdysone and CqVg dsRNA, GAP65 transcript levels were similar to the levels detected in the ecdysone and dsRNA carrier injected group. In the control carriers injected crayfish GAP65 transcript levels were higher than the levels found in the ecdysone and GAP65 dsRNA injected crayfish but lower than the levels detected in both the ecdysone and dsRNA injected, and the ecdysone CqVg dsRNA injected crayfish.
In order to test the role of GAP65 in gastrolith formation, an RNAi (RNA interference) technique using in vivo injections of GAP65 dsRNA to intermolt crayfish was applied. The initiation of gastrolith formation was achieved by injection of ecdysone. In FIG. 5 gastrolith of crayfish injected with either ecdysone+GAP65 dsRNA, ecdysone+dsRNA carrier, or with carriers of both ecdysone and dsRNA can be seen. FIG. 5A is a lateral view of a representative gastrolith dissected from each treatment group. […] In the control carriers injected the gastrolith appeared undeveloped or in an initial growth stage. […] The control carrier gastrolith was too small to be detected by the X-ray imaging.
Scanning electron microscope (SEM) images of gastroliths dissected from crayfish injected with GAP65 dsRNA and ecdysone, and from crayfish injected only with ecdysone and dsRNA carrier, are presented in FIG. 6. FIG. 6A-B depict images of a cross section through the central part of the gastrolith. […] The dense mineral layered structure observed in the gastrolith of ecdysone and carrier injected is replaced with a loosely packed columnar mineralization structure, which resembles hollow straws, in the gastrolith of ecdysone and GAP65 dsRNA injected crayfish.

GAP10 transcripts = experiment: in vivo silencing of GAP10 transcripts during premolt; parameters: species or system C. quadricarinatus
Experimental: In order to examine the effect of in vivo silencing of GAP10 transcripts during premolt, intermolt males (MMI=0), each weighing 5-10 g were divided to four groups. Ten animals were injected daily with both ecdysone, and dsRNA of GAP 10; eight were injected with ecdysone; six were injected with both ecdysone and dsRNA of CqVg; and four were injected with ecdysone carrier only, i.e., 10% ethanol in Diethyl pyrocarbonate-treated doubly distilled water. Injections were given into the sinus of the first abdominal segment. For each individual crayfish the experiment was terminated at MMI=0.1, at which time the animal was anesthetized and its gastroliths were dissected out. Premolt duration was defined as the number of days until termination. […] Another group was injected with ecdysone and CqVg dsRNA (a hepatopancreatic-specific gene found mostly in reproductive females) and served as a control for sequence-specific silencing.
For analysis of the gastrolith surface roughness, optical phase interference microscopy (OPIM) analysis was used, providing topographic images of representative surface samples from each group (FIG. 37B).

[1] = in vitro calcium carbonate precipitation assay testing the stabilization of ACC; type: physicochemical; conditions: for form of calcium carbonate precipitated in the presence of the additive: in vitro precipitation from calcium salt and carbonate
Text: Analysis of the product may comprise testing the resultant CaCO3 by various methods (as XRD, electron diffraction, SEM) to verify its amorphous nature. […] The phosphate peak at 950 cm^−1, is proportional to the phosphate content in the sample. Yet, the ratio between 1080 to 950 cm^−1 is proportional, but not directly indicative of the CO3^2−/[…] ratio.
FIG. 7 presents precipitation results of calcium carbonate in the presence of GAP65 and in the presence of other protein (trypsin). SEM images in FIG. 7A indicate the distinct polymorph of calcium carbonate in each treatment.
(§1) 100 μl of 1M CaCl2 was added to 10 ml double distilled water (final concentration: 10 mM). 80 μl from the protein extraction solution (1.2 μg/μl) were added (final concentration ˜10 μg/ml), 100 μl of 1M Na2CO3 (final concentration: 10 mM) was added following an intensive shaking. The vial was centrifuged for 5 min at 4000 rpm, the precipitate was smeared over a glass slide and instantly dried with air flow. […] The observations were confirmed by Raman spectroscopy.
100 μl of 1M CaCl2 were added to 10 ml double-distilled water (DDW), attaining the final concentration of […]. 200 μl of P-serine (P-Ser) solution (100 mM) were added to the solution, attaining 2 mM of P-Ser. 100 μl of 1M Na2CO3 (final concentration: 10 mM) were added following an intensive shaking. The vial was centrifuged for 5 min at 4000 rpm at room temperature. The upper solution was removed and the precipitation was smeared over a glass slide and instantly dried by air flow.

[2] = stability of ACC held at room temperature, tested by Raman spectroscopy; type: physicochemical
Experimental: The precipitated calcium carbonate was checked over long periods for the amorphous/crystalline state.
as §1

[3] = isoelectric focusing then SDS-PAGE of gastrolith protein fraction; type: physicochemical; conditions: two spots of ~9 and ~11 kDa identified as GAP10, respectively
Experimental: (§2) Proteins that were both phosphorylated and calcium-binding were prepared for LC-MS. Two of them, migrating at apparent molecular masses of ˜9 and ˜11 kDa (circled), were identified as GAP10 (FIG. 33B), and their pIs were calculated as 5 and 5.5, respectively. Since GAP10 has a mildly acidic pI, it is negatively charged at the pH of the gastrolith pouch, which is approximately 8.7.

[4] = calcium binding on nitrocellulose membrane after SDS-PAGE; conditions: gastrolith protein fraction transferred to nitrocellulose membrane
Experimental: FIGS. 33A-B. relate to the identification of GAP10 and characterization of its phosphorylation and calcium-binding properties; FIG. 33A, left: SDS-PAGE stained with Coomassie blue; middle: Staining of the same gel for phosphoproteins; right: transfer of the same fraction to a nitrocellulose membrane and incubation with […]. Spots identified as GAP10 by LC-MS are circled. Abbreviations: PC (positive control).
as §2

Molecule: C[C@H]([C@H](O)CCC(C)(C)O)[C@H]1CC[C@@]2(O)C3=CC(=O)[C@@H]4C[C@@H](O)[C@@H](O)C[C@]4(C)[C@H]3CC[C@]12C [ecdysone]
- typical induced premolt duration until ecdysis (C. quadricarinatus; known for ecdysone administration): 10 to 14 days
- peak observed molt mineralization index (MMI) (C. quadricarinatus; reached 1-2 days before the molt event): 0.125-0.145
- gastrolith spherule size (GAP65 transcript; SEM x15000): 40-60 nm
- gastrolith structure by SEM (GAP65 transcript; cross section through central part of gastrolith): normal gastrolith appearance
- gastrolith morphology (GAP65 transcript; dissected gastrolith, lateral view, gastrolith formation initiated by ecdysone): normal with no deformities
- gastrolith mineral density by X-ray imaging (GAP65 transcript; dorsal X-ray view prior to dissection): normal with no effects on mineral densities
- Swedish height (SH) of gastrolith surface (GAP10 transcripts; OPIM topographic images): 4.4±0.5 μm
- average premolt duration (number of days until reaching MMI=0.1) (GAP10 transcripts; repeated daily injections to intermolt males, dsRNA given together with ecdysone): 10.1 days
- gastrolith surface appearance (GAP10 transcripts; top view of dissected gastroliths): fairly smooth

B1: GAP65: Negatively charged glycoprotein of about 65 kDa from Cherax quadricarinatus gastrolith, SEQ ID NO. 1; used as enriched DEAE fraction 17 (protein, listed as Cherax quadricarinatus)
chain: MIRRVTTPLLALLLAGWVVAQTTDMDPEQYCARRDDEYFRKDFGDPAEFASDYRANCGVYYRCVPAPAGKRSISASQCQSELFFDVQQQICERKSKVTNCEQIDKEHPPQPFWPLREGEESQCKSGEIMCGSGECLPQHRFCDENSDCADGSDENICTPDKDPNRADVCEPRTCLWSQGCFCSVDGTRIPGDLTVDQTPQMITITFTGAINERNFRIFQDVFKDTVKHKGNDCTPKGTFFISHGFSNYSAIQELNRVGHEIAVSSITNNDNPDYWSKLSALDYEAEMDGARLIIEKFANITANEVLGIRVPKQRVGGNRQFRMMVDWGFLYDSSISAPMGRLPLWPYTLMHRMPHKCLGNDQNCPSQNFTVWEMVINEMDRRDDPQFDERLTGCHFVDQCANIQSPEQFRAFLDNNLARHYRTNRAPLGLHFTSGYFETRRDFLREFVKWVRETALSGDYFFVTMQQVINWMEAPTELTAINNFQEWKGKCEVKGQPYCSLPNPCPKKVPRIFPNEEEMFLYTCMECPNTYPWLGDPHGNGFLDIPDF
- ACC share of the total CaCO3 ([1]; 10 mM CaCl2, 10 mM Na2CO3, ~10 μg/ml protein, estimated): at least 50%
- Raman spectroscopy (RS) of the CaCO3 precipitate ([1]; after precipitation and drying, broad peak about 1080 cm^-1 indicates ACC): distinct spectra of ACC
- form of calcium carbonate precipitated in the presence of the additive ([1]; SEM): amorphous CaCO3; also recorded: amorphous form (ACC)
- CaCO3 deposits characterized by polarized microscope ([1]; precipitation in the presence of GAP65, confirmed by Raman spectroscopy): mixture of calcite, vaterite, and ACC
- Raman spectra (around the 1085 peak) compared with calcite ([2]; 6.5-month old ACC, room temperature): mixture seemingly comprising ACC and vaterite
- nanosphere size of ACC ([2]; SEM 40 days after the precipitation): 50-500 nm
- time the ACC remained stable (amorphous state kept) ([2]; room temperature, Raman spectra): at least 1 months

B2: trypsin: Other (inert) protein used in equivalent amount as control in the precipitation assay (protein, UniProt P00760 24-246, looked up)
Serine protease 1: IVGGYTCGANTVPYQVSLNSGYHFCGGSLINSQWVVSAAHCYKSGIQVRLGEDNINVVEGNEQFISASKSIVHPSYNSNTLNNDIMLIKLKSAASLNSRVASISLPTSCASAGTQCLISGWGNTKSSGTSYPDVLKCLKAPILSDSSCKSAYPGQITSNMFCAGYLEGGKDSCQGDSGGPVVCSGKLQGIVSWGSGCAQKNKPGVYTKVCNYVSWIKQTIASN
- form of calcium carbonate precipitated in the presence of the additive ([1]; SEM): rapid crystallization
- size of calcium carbonate crystals formed ([1]; same conditions, control protein, SEM): 10 μm

- calcium binding [4]: calcium-binding ability
B3: GAP10: Gastrolith protein of Cherax quadricarinatus, calculated 10 kDa, SEQ ID NO. 24 (fragment SEQ ID NO. 25) (protein, listed as Cherax quadricarinatus)
chain: MKIFILLVVIGVVSAQLGAGQVGGAAPAQGAGGAAGVGGPGAAPVNPYGPKVYGSGLNNPFAFPHNTWEVSRAAAVAATNPNLYVRVESDGGWEFTNRFGEKVDVYNSFGQELD
- pI [3]: 5 and 5.5
